# Measurements taken from article PMC6405930, “Conservation of the Amyloid Interactome Across Diverse Fibrillar Structures” (Scientific Reports, 2019).
# Tests used:
# Ab2 fibrils [1] = tested on: T1, Ab2 fibrils; assay: Fibril incubation with CSF, quantitative MS/MS of bound proteins; format: binding, human; settings: 4:1 w/w CSF protein:fibril
# T1 construct: Two structurally distinct fibrils of the Aβ(1–40) peptide associated with AD
# glucagon fibrils [2] = biological target: T2, glucagon fibrils (Homo sapiens, UniProt P01275); assay: as above; format: binding; settings: 4:1 w/w CSF protein:fibril
# T2 construct: fibrils of the peptide hormone glucagon
# C-36 fibrils [3] = biological target: T3, C-36 fibrils (Homo sapiens, UniProt P01009); assay: Fibril incubation with plasma, quantitative MS/MS of bound proteins; format: binding; set-up: key to Identification status of plasma protein bound: C-36: *: Identified, but not quantified; —: Not identified in any of the samples; settings: for Identification status of plasma protein bound: C-36: symbol cells
# T3 construct: the 36 residue C-terminal fragment of α1-antitrypsin (C-36)
# Experimental: (§1) Plasma and CSF solutions were centrifuged (40,000 g, 20 min) to remove any aggregates. The protein concentration was determined using 280 nm absorbance assuming 1 Abs = 1 mg/mL. […] Control samples (without fibril material) were prepared similarly. All samples were incubated at room temperature for one hour under gentle agitation. Fibrils and fibril-bound proteins were pelleted by centrifugation at 17,000 g for 30 minutes. The supernatant (175 μL) was removed and the aggregate was re-suspended in 175 μL PBS and pelleted again before further preparation for gel analysis and spin-filter assisted digest for quantitative MS/MS.
# (§2) The fibril-protein pellets were transferred to spin-filters (0.22 μm), washed twice in PBS (100 μL) and once in 1 M NaCl (100 μL). The fibrils and fibril-bound proteins were dissolved by one-hour incubation in 100 μL 6 M guanidinium chloride followed by elution from the spin-filter. The eluted proteins were loaded onto a 3 kDa MWCO filter unit for filter-assisted unfolding, reduction, alkylation, and trypsin digestion. In brief, samples were washed twice in 8 M urea, once in 8 M urea with 50 mM DTT, once in 8 M urea with 50 mM iodoaceteamide, and twice in 8 M Urea. The filter units were dried by centrifugation (14,000 g in 30 minutes) after every addition. Trypsin digestion was carried out with 0.25 μg sequencing grade trypsin from Sigma Aldrich in 50 mM ammonium bicarbonate overnight at 37 °C. The tryptic peptides were collected by centrifugation, acidified with TFA (0.1%) and micro-purified using POROS R2 column material (Applied Biosystems) packed in P200 pipette tips (Sarstedt).
# (§3) LC-MS/MS analyses were performed on an EASY-nLC II system (Thermo Fisher Scientific) connected to a TripleTOF 5600+ mass spectrometer (Sciex) equipped with a NanoSpray III source (Sciex) and operated under Analyst TF 1.6.0 control.
# (§4) The micro-purified tryptic peptides were dissolved in 0.1% formic acid, injected and trapped on an in-house packed trap column (2 cm × 100 μm I.D) with RP ReproSil-Pur C18-AQ 3 μm resin (Dr. Maisch GmbH). Peptides were eluted from the trap column and separated on a 15 cm analytical column (75 μm i.d.) packed in-house in a pulled emitter with RP ReproSil-Pur C18-AQ 3 μm resin (Dr. Maisch GmbH). Elution from the analytical column was performed with a linear gradient from 5% to 35% phase B (90% acetonitrile with 0.1% formic acid) over 20 min for protein identification and 50 min for quantitative analysis, respectively.
# (§5) All samples were analysed three times, yielding nine MS/MS experiments for each fibril for both plasma and CSF. For the area-based extracted ion chromatogram (XIC) quantification, the acquisition method was set up as an information-dependent acquisition (IDA) experiment collecting up to 25 MS/MS spectra in each 1.6 sec cycle using an exclusion window of 6 sec.
# (§6) XIC quantification was based on the average ion intensity of the three most abundant peptides for each protein. Only proteins quantified in at least four out of nine MS/MS experiments per fibril were included in the quantification. The total ion scores were visualized after grouping the proteins according to function (Figure S11).
# (§7) For each MS/MS experiment, the ion intensities of the individual proteins were normalized to the total ion intensity of that MS/MS experiment to achieve a relative protein composition. The contribution of each protein was averaged over all nine MS/MS experiments (Tables 1 and 2).
# FAS4-AD aggregates [4] = tested on: T4, FAS4-AD aggregates; assay: as above; format: binding, human; set-up: key to Identification status of plasma protein bound: FAS4-AD: *: Identified, but not quantified; —: Not identified in any of the samples; settings: for Identification status of plasma protein bound: FAS4-AD: symbol cells
# T4 construct: aggregates of a mutated version of the FAS1-4 domain of TGFBIp
# Experimental: as §1, §2, §3, §4, §5, §6, §7
# glucagon fibrils [5] = biological target: T2, glucagon fibrils; assay: as above; format: binding; settings: 50:1 w/w plasma protein:fibril
# Experimental: as §1, §2, §3, §4, §5, §6, §7
# αSN fibrils [6] = biological target: T5, αSN fibrils (Homo sapiens, UniProt P37840); assay: Fibril incubation with CSF, quantitative MS/MS of bound proteins; format: binding; set-up: key to Identification status of CSF protein bound: αSN: *: Identified, but not quantified; —: Not identified in any of the samples; settings: for Identification status of CSF protein bound: αSN: symbol cells
# αSN fibrils [7] = biological target: T5, αSN fibrils; assay: Fibril incubation with plasma, quantitative MS/MS of bound proteins; format: binding; set-up: key to Identification status of plasma protein bound: αSN: *: Identified, but not quantified; —: Not identified in any of the samples; settings: for Identification status of plasma protein bound: αSN: symbol cells
# Experimental: as §1, §2, §3, §4, §5, §6, §7
# FAS4-AD aggregates [8] = tested on: T4, FAS4-AD aggregates; assay: Fibril incubation with CSF, quantitative MS/MS of bound proteins; format: binding, human; set-up: key to Identification status of CSF protein bound: FAS4-AD: *: Identified, but not quantified; —: Not identified in any of the samples; settings: symbol cells
# C-36 fibrils [9] = biological target: T3, C-36 fibrils; assay: as above; format: binding; set-up: key to Identification status of CSF protein bound: C-36: *: Identified, but not quantified; —: Not identified in any of the samples; settings: for Identification status of CSF protein bound: C-36: symbol cells
# Ab2 fibrils [10] = tested on: T1, Ab2 fibrils; assay: Fibril incubation with plasma, quantitative MS/MS of bound proteins; format: binding, human; settings: 50:1 w/w plasma protein:fibril
# Experimental: as §1, §2, §3, §4, §5, §6, §7
# Ab1 fibrils [11] = tested on: T6, Ab1 fibrils; assay: as above; format: binding, human; settings: 50:1 w/w plasma protein:fibril
# T6 construct: Synthetic amyloid β peptide 1–40 was purchased from Caslo Aps (Lyngby, Denmark); purchased Caslo Aps (Lyngby, Denmark); host or cells: synthetic peptide
# Experimental: Plasma and CSF solutions were centrifuged (40,000 g, 20 min) to remove any aggregates. The protein concentration was determined using 280 nm absorbance assuming 1 Abs = 1 mg/mL. […] Control samples (without fibril material) were prepared similarly. All samples were incubated at room temperature for one hour under gentle agitation. Fibrils and fibril-bound proteins were pelleted by centrifugation at 17,000 g for 30 minutes. The supernatant (175 μL) was removed and the aggregate was re-suspended in 175 μL PBS and pelleted again before further preparation for gel analysis and spin-filter assisted digest for quantitative MS/MS.
# as §2, §3, §4, §5, §6, §7
# Ab1 fibrils [12] = tested on: T6, Ab1 fibrils; assay: Fibril incubation with CSF, quantitative MS/MS of bound proteins; format: binding, human; settings: 4:1 w/w CSF protein:fibril
# T2 sequence (P01275 53-81 limits assumed): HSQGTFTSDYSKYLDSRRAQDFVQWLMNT
# T3 sequence (P01009 383-418 limits assumed): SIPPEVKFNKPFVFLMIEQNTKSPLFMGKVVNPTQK
molecule,measurement,setting,value
"Histidine-rich glycoprotein (protein, UniProt P04196 19-525, looked up) Histidine-rich glycoprotein: VSPTDCSAVEPEAEKALDLINKRRRDGYLFQLLRIADAHLDRVENTTVYYLVLDVQESDCSVLSRKYWNDCEPPDSRRPSEIVIGQCKVIATRHSHESQDLRVIDFNCTTSSVSSALANTKDSPVLIDFFEDTERYRKQANKALEKYKEENDDFASFRVDRIERVARVRGGEGTGYFVDFSVRNCPRHHFPRHPNVFGFCRADLFYDVEALDLESPKNLVINCEVFDPQEHENINGVPPHLGHPFHWGGHERSSTTKPPFKPHGSRDHHHPHKPHEHGPPPPPDERDHSHGPPLPQGPPPLLPMSCSSCQHATFGTNGAQRHSHNNNSSDLHPHKHHSHEQHPHGHHPHAHHPHEHDTHRQHPHGHHPHGHHPHGHHPHGHHPHGHHPHCHDFQDYGPCDPPPHNQGHCCHGHGPPPGHLRRRGPGKGPRPFHCRQIGSVYRLPPLRKGEVLPLPEANFPSFPLPHHKHPLKPDNQPFPQSVSESCPGKFKSGFPQVSMFFTHTFPK",Relative composition of CSF proteins bound: Ab2,Ab2 fibrils [1],0.6 ± 0.2 % of total protein
same,Relative composition of CSF proteins bound: Glucagon,glucagon fibrils [2],0.1 ± 0.0 % of total protein
same,Identification status of plasma protein bound: C-36,C-36 fibrils [3],—
same,Identification status of plasma protein bound: FAS4-AD,FAS4-AD aggregates [4],—
same,Relative composition of plasma proteins bound: Glucagon,glucagon fibrils [5],0.4 ± 0.0 % of total protein
same,Identification status of CSF protein bound: αSN,αSN fibrils [6],—
same,Identification status of plasma protein bound: αSN,αSN fibrils [7],—
same,Identification status of CSF protein bound: FAS4-AD,FAS4-AD aggregates [8],—
same,Identification status of CSF protein bound: C-36,C-36 fibrils [9],*
same,Relative composition of plasma proteins bound: Ab2,Ab2 fibrils [10],1.8 ± 0.1 % of total protein
same,Relative composition of plasma proteins bound: Ab1,Ab1 fibrils [11],2.5 ± 0.1 % of total protein
same,Relative composition of CSF proteins bound: Ab1,Ab1 fibrils [12],0.4 ± 0.1 % of total protein
"Ig γ -3 chain C region: plasma/CSF protein bound to fibrils (protein, UniProt P01860 1-446, looked up) Immunoglobulin heavy constant …: ASTKGPSVFPLAPCSRSTSGGTAALGCLVKDYFPEPVTVSWNSGALTSGVHTFPAVLQSSGLYSLSSVVTVPSSSLGTQTYTCNVNHKPSNTKVDKRVELKTPLGDTTHTCPRCPEPKSCDTPPPCPRCPEPKSCDTPPPCPRCPEPKSCDTPPPCPRCPAPELLGGPSVFLFPPKPKDTLMISRTPEVTCVVVDVSHEDPEVQFKWYVDGVEVHNAKTKPREEQYNSTFRVVSVLTVLHQDWLNGKEYKCKVSNKALPAPIEKTISKTKGQPREPQVYTLPPSREEMTKNQVSLTCLVKGFYPSDIAVEWESSGQPENNYNTTPPMLDSDGSFFLYSKLTVDKSRWQQGNIFSCSVMHEALHNRFTQKSLSLSPELQLEESCAEAQDGELDGLWTTITIFITLFLLSVCYSATVTFFKVKWIFSSVVDLKQTIIPDYRNMIGQGA",Relative composition of CSF proteins bound: Ab2,Ab2 fibrils [1],3.0 ± 0.2 % of total protein
same,Relative composition of CSF proteins bound: Glucagon,glucagon fibrils [2],1.4 ± 0.5 % of total protein
same,Identification status of plasma protein bound: C-36,C-36 fibrils [3],*
same,Identification status of plasma protein bound: FAS4-AD,FAS4-AD aggregates [4],—
same,Relative composition of plasma proteins bound: Glucagon,glucagon fibrils [5],1.0 ± 0.1 % of total protein
same,Identification status of CSF protein bound: αSN,αSN fibrils [6],*
same,Identification status of plasma protein bound: αSN,αSN fibrils [7],*
same,Identification status of CSF protein bound: FAS4-AD,FAS4-AD aggregates [8],—
same,Identification status of CSF protein bound: C-36,C-36 fibrils [9],*
same,Relative composition of plasma proteins bound: Ab2,Ab2 fibrils [10],1.1 ± 0.1 % of total protein
same,Relative composition of plasma proteins bound: Ab1,Ab1 fibrils [11],1.0 ± 0.1 % of total protein
same,Relative composition of CSF proteins bound: Ab1,Ab1 fibrils [12],2.5 ± 0.1 % of total protein
"Apolipoprotein A-IV: plasma/CSF protein bound to fibrils (protein, UniProt P06727 21-396, looked up) Apolipoprotein A-IV: EVSADQVATVMWDYFSQLSNNAKEAVEHLQKSELTQQLNALFQDKLGEVNTYAGDLQKKLVPFATELHERLAKDSEKLKEEIGKELEELRARLLPHANEVSQKIGDNLRELQQRLEPYADQLRTQVSTQAEQLRRQLTPYAQRMERVLRENADSLQASLRPHADELKAKIDQNVEELKGRLTPYADEFKVKIDQTVEELRRSLAPYAQDTQEKLNHQLEGLTFQMKKNAEELKARISASAEELRQRLAPLAEDVRGNLRGNTEGLQKSLAELGGHLDQQVEEFRRRVEPYGENFNKALVQQMEQLRQKLGPHAGDVEGHLSFLEKDLRDKVNSFFSTFKEKESQDKTLSLPELEQQQEQQQEQQQEQVQMLAPLES",Relative composition of CSF proteins bound: Ab2,Ab2 fibrils [1],0.5 ± 0.0 % of total protein
same,Relative composition of CSF proteins bound: Glucagon,glucagon fibrils [2],0.5 ± 0.1 % of total protein
same,Relative composition of plasma proteins bound: C-36,C-36 fibrils [3]; 50:1 w/w plasma protein:fibril,2.4 ± 0.4 % of total protein
same,Relative composition of plasma proteins bound: FAS4-AD,FAS4-AD aggregates [4]; 50:1 w/w plasma protein:fibril,1.6 ± 0.2 % of total protein
same,Relative composition of plasma proteins bound: Glucagon,glucagon fibrils [5],1.9 ± 0.2 % of total protein
same,Relative composition of CSF proteins bound: αSN,αSN fibrils [6]; 4:1 w/w CSF protein:fibril,1.5 ± 0.2 % of total protein
same,Relative composition of plasma proteins bound: αSN,αSN fibrils [7]; 50:1 w/w plasma protein:fibril,3.8 ± 0.6 % of total protein
same,Identification status of CSF protein bound: FAS4-AD,FAS4-AD aggregates [8],—
same,Relative composition of CSF proteins bound: C-36,C-36 fibrils [9]; 4:1 w/w CSF protein:fibril,1.0 ± 0.1 % of total protein
same,Relative composition of plasma proteins bound: Ab2,Ab2 fibrils [10],3.5 ± 0.5 % of total protein
same,Relative composition of plasma proteins bound: Ab1,Ab1 fibrils [11],2.7 ± 0.1 % of total protein
same,Relative composition of CSF proteins bound: Ab1,Ab1 fibrils [12],1.2 ± 0.1 % of total protein
